The results in this text go back to patent publication US20090192289A1 (Genentech, published 2009).

The chains are these.
T1: GST-Omi PDZ fusion protein (human, UniProt O43464 359-458)
T1 construct: also called GST-hOmiPDZ; hOmi PDZ domain; not shown: glutathione S-transferase (GST) encoded by plasmid pGEX6P-3
T1 sequence: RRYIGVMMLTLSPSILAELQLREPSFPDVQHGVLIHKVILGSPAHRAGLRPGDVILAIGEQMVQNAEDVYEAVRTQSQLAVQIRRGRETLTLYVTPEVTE

B1: libN phage-displayed peptide GGFWWGPAG (peptide)
chain: GGFWWGPAG
modifications: not fully specified (C-terminus)
notes: 5 siblings; not shown: M13 gene-8 major coat protein (P8)
B2: libC phage-displayed peptide SEQ ID NO:34 (peptide)
chain: FLGFLEFFWI
modifications: not fully specified
notes: not shown: M13 gene-8 major coat protein (P8)
B3: libN phage-displayed peptide SEQ ID NO:49 (peptide)
chain: SHWWGGWLG
modifications: not fully specified (C-terminus)
notes: 17 siblings; not shown: M13 gene-8 major coat protein (P8)
B4: libC phage-displayed peptide SEQ ID NO:44 (peptide)
chain: TVHSWFLWFV
modifications: not fully specified (N-terminus)
notes: as for B2
B5: libC phage-displayed peptide SEQ ID NO:38 (peptide)
chain: TRANWLFFWV
modifications: not fully specified (N-terminus)
notes: as for B2
B6: libC phage-displayed peptide WLDRFPHFWV (peptide)
chain: WLDRFPHFWV
modifications: not fully specified (N-terminus)
notes: 15 siblings; not shown: M13 gene-8 major coat protein (P8)
B7: libC phage-displayed peptide SEQ ID NO:35 (peptide)
chain: SFYILRYFWV
modifications: not fully specified
notes: as for B2
B8: libC phage-displayed peptide KVASWTMFWV (peptide)
chain: KVASWTMFWV
modifications: not fully specified
notes: 42 siblings; not shown: M13 gene-8 major coat protein (P8)
B9: libC phage-displayed peptide SEQ ID NO:46 (peptide)
chain: IPLHWIFYLV
modifications: not fully specified (N-terminus)
notes: as for B2
B10: libN phage-displayed peptide SEQ ID NO:52 (peptide)
chain: STDYWWGCG
modifications: not fully specified (C-terminus)
notes: as for B2
B11: libN phage-displayed peptide SEQ ID NO:54 (peptide)
chain: SSDYWWGCG
modifications: not fully specified (C-terminus)
notes: as for B2
B12: libN phage-displayed peptide GIAGFWWDG (peptide)
chain: GIAGFWWDG
modifications: not fully specified (C-terminus)
notes: 9 siblings; not shown: M13 gene-8 major coat protein (P8)
B13: libN phage-displayed peptide SEQ ID NO:56 (peptide)
chain: WIAGFWWDG
modifications: not fully specified (C-terminus)
notes: as for B2
B14: libC phage-displayed peptide SEQ ID NO:42 (peptide)
chain: SLLNWVLYLV
modifications: not fully specified (N-terminus)
notes: as for B2
B15: libC phage-displayed peptide SEQ ID NO:31 (peptide)
chain: DRLNWLFFWI
modifications: not fully specified
notes: as for B2
B16: libC phage-displayed peptide SEQ ID NO:41 (peptide)
chain: TGMSWTIWFL
modifications: not fully specified (N-terminus)
notes: as for B2
B17: libC phage-displayed peptide SEQ ID NO:40 (peptide)
chain: SKLRLFFMWV
modifications: not fully specified (N-terminus)
notes: as for B2
B18: libC phage-displayed peptide SEQ ID NO:28 (peptide)
chain: DSLLFDFWWA
modifications: not fully specified
notes: as for B2
B19: libC phage-displayed peptide SEQ ID NO:43 (peptide)
chain: GLMPLLFFWV
modifications: not fully specified (N-terminus)
notes: as for B2
B20: libC phage-displayed peptide SEQ ID NO:29 (peptide)
chain: NQRVWIFWLI
modifications: not fully specified
notes: as for B2
B21: libC phage-displayed peptide SEQ ID NO:32 (peptide)
chain: YPTYWTFWWV
modifications: not fully specified
notes: as for B2
B22: libC phage-displayed peptide SEQ ID NO:33 (peptide)
chain: LYSIYRFFWA
modifications: not fully specified
notes: as for B2
B23: libN phage-displayed peptide SEQ ID NO:51 (peptide)
chain: WGYWWGPGG
modifications: not fully specified (C-terminus)
notes: as for B2
B24: libN phage-displayed peptide SEQ ID NO:55 (peptide)
chain: GIVWFWWDG
modifications: not fully specified (C-terminus)
notes: as for B2
B25: libN phage-displayed peptide SEQ ID NO:53 (peptide)
chain: GDIVCTWGG
modifications: not fully specified (C-terminus)
notes: as for B2
B26: libN phage-displayed peptide SEQ ID NO:50 (peptide)
chain: ATEFWWGVG
modifications: not fully specified (C-terminus)
notes: 10 siblings; not shown: M13 gene-8 major coat protein (P8)
B27: libC phage-displayed peptide SEQ ID NO:45 (peptide)
chain: WVDSCPIFWV
modifications: not fully specified (N-terminus)
notes: as for B2
B28: libC phage-displayed peptide SEQ ID NO:30 (peptide)
chain: SSFFRFWFV
modifications: not fully specified
notes: as for B2
B29: libC phage-displayed peptide SEQ ID NO:27 (peptide)
chain: PGRWGPFFWV
modifications: not fully specified
notes: as for B2
B30: libN phage-displayed peptide WEWIGMEWG (peptide)
chain: WEWIGMEWG
modifications: not fully specified (C-terminus)
notes: 31 siblings; not shown: M13 gene-8 major coat protein (P8)
B31: libC phage-displayed peptide SEQ ID NO:39 (peptide)
chain: RIPFLFFLWA
modifications: not fully specified (N-terminus)
notes: as for B2
B32: libN phage-displayed peptide ESLWWGWEG (peptide)
chain: ESLWWGWEG
modifications: not fully specified (C-terminus)
notes: 7 siblings; not shown: M13 gene-8 major coat protein (P8)
B33: libN phage-displayed peptide AGDSWWWGG (peptide)
chain: AGDSWWWGG
modifications: not fully specified (C-terminus)
notes: 4 siblings; not shown: M13 gene-8 major coat protein (P8)
B34: libC phage-displayed peptide SEQ ID NO:36 (peptide)
chain: TMSDWLFWWA
modifications: not fully specified (N-terminus)
notes: as for B2
B35: hOmi_c2 (peptide)
peptide: Ac-RFPHFWV-OH
notes: synthetic peptide from libC; also called RFPHFWV
B36: hOmi_c1 (peptide)
peptide: Ac-SWTMFWV-OH
notes: synthetic peptide from libC; also called SWTMFWV

Where no end group is shown, it is not given here.

One assay concerns the target T1, GST-Omi PDZ fusion protein. As to the kind of experiment: phage ELISA on GST-Omi PDZ after three rounds of selection. How it is done:
Selection for Omi PDZ peptides—Previously described procedures were used to isolate peptides that bound to a GST-Omi PDZ fusion, using libraries of random decapeptides fused to either the C terminus(18) or octapeptide fused to the N terminus(19) of the M13 gene-8 major coat protein, designated as libC or libN, respectively. After three rounds of selection, individual clones were grown in a 96-well format in 500 μL of 2YT broth supplemented with carbenicillin, kanamycin and KO7, and the culture supernatants were used directly in phage ELISAs(19) to detect peptides that bound specifically to Omi PDZ. Peptide sequences derived from positive clones were aligned and tabulated. A total of 95 positive colonies from libC and 89 from libN were analyzed. (see Table II). […] The sequences were selected after three rounds of sorting with IPTG induction. Hydrophobic residues (A, F, I, L, M, V, W, Y) are italicized and bolded, n is the number of siblings.
With B1, the binding result is “binds”.
Regarding B2, the binding result is given as “binds”.
For the molecule B3, the binding result is “binds”.
Same read-out and setting: for B4 the value was “binds”; for B5, “binds”.
With B6, the binding result was “binds”.
The same measure, in the same setting: for B7 the value was “binds”; for B8, “binds”; for B9, “binds”.
Still for that read-out and setting: for B10 the value was “binds”.
The same measure, in the same setting: for B11 the value was “binds”.
Consider B12, for which the binding result is listed as “binds”.
On the same count and under the same terms, for B13 the value was “binds”; for B14, “binds”; for B15, “binds”.
Same read-out and setting: for B16 the value was “binds”.
Same read-out and setting: for B17 the value was “binds”; for B18, “binds”; for B19, “binds”.
For B20, the binding result is “binds”.
The same measure, in the same setting: for B21 the value was “binds”; for B22, “binds”; for B23, “binds”.
Still for that read-out and setting: for B24 the value was “binds”.
Regarding B25, the binding result is “binds”.
Same read-out and setting: for B26 the value was “binds”.
Turning to B27, the binding result is reported as “binds”.
B28: the binding result was “binds”.
The same measure, in the same setting: for B29 the value was “binds”; for B30, “binds”; for B31, “binds”.
Same read-out and setting: for B32 the value was “binds”; for B33, “binds”; for B34, “binds”.

The target of a further assay is T1, GST-Omi PDZ fusion protein. As to the kind of experiment: competition ELISA. How it is done:
(§1) Affinity Assays—The binding affinities of peptides for Omi PDZ were determined as IC₅₀ values using a previously described competition ELISA(18). The IC₅₀ value was defined as the concentration of peptide that blocked 50% of PDZ domain binding to immobilized peptide. Assay plates were prepared by immobilizing an amino-terminally biotinylated peptide (biotin-GWTMFWV) on maxisorp plates coated with NeuTravidin and blocked with BSA. A fixed concentration of GST-Omi PDZ fusion protein (20 nM) in PBS, 0.5% BSA, 0.1% Tween 20 (PBT buffer) was preincubated for 1 h with serial dilutions of peptide and then transferred to the assay plates. After 1 h incubation, the plates were washed with PBS, 0.05% Tween 20, incubated for 30 min with HRP/anti-GST antibody (1:10,000) in PBT buffer, washed again, and detected with 3,3′,5,5′-Tetramethyl-benzidine/H₂O₂ (TMB) peroxidase substrate.
H-HWWGGWLG-NH2 [hOmi_n1_t6]: the “fold reduction of binding affinity vs … (hOmi_n1)” value was 3 fold.
For H-SHWW-NH2 (also called SHWW; tetrapeptide (SHWW)) [hOmi_n1_t5], the “fold lower affinity vs … (hOmi_n1)” value turned out to be 3 fold.
With Ac-WTMFWV-OH (also called WTMFWV) [hOmi_c1_t1], the binding result is listed as “binds”.
Still for that read-out and setting: for Ac-AWTMFWV-OH (also called AWTMFWV) [hOmi_c1_A7] the value was “binds”.
Regarding Ac-TMFWV-OH (also called TMFWV) [hOmi_c1_t2], the “fold lower affinity vs SWTMFWV (hOmi_c1)” value stood at 15 fold.
The same measure, in the same setting: for B35 the value was 50 fold.

For the next assay, the target named is T1, GST-Omi PDZ fusion protein. As to the kind of experiment: competition ELISA, 20 nM GST-Omi PDZ, immobilized biotin-GWTMFWV as competitor. The protocol: as §1
Take Ac-MFWV-OH (also called MFWV) [hOmi_c1_t3]: the IC50 turned out to be 24.1 µM.
Still for that read-out and setting: for H-SHWW-NH2 (also called SHWW; tetrapeptide (SHWW)) [hOmi_n1_t5] the value was 72.2 µM; for B36, 3.3 µM.
H-SHWWGGWLG-NH2 (synthetic peptide from libN) [hOmi_n1]: the IC50 stood at 21.6 µM.
Still for that read-out and setting: for H-SHWWGGWL-NH2 [hOmi_n1_t1] the value was 17.6 µM.
Same read-out and setting: for H-SHWWGGW-NH2 (also called SHWWGGW) [hOmi_n1_t2] the value was 26 µM; for H-ATEFWWGVG-NH2 (synthetic peptide from libN) [hOmi_n4], 32.4 µM.
Same read-out and setting: for B35 the value was 162 µM.
